T1: BCMA (Homo sapiens (Human), UniProt Q02223 1-54, limits assumed)
T1 sequence: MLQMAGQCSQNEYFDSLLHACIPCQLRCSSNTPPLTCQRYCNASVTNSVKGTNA

B1: D-domain SEQ ID NO: 118 (designed binder)
chain: MGSWYEFEDRLVAIWIRLDALGGSEAELAAFEKEIAAFESELQAYKGKGNPEVEELRYNAAFIRGALQAYRHN
B2: D-domain SEQ ID NO: 97 (designed binder)
chain: MGSWVEFEERLAAIATRLHALGGSEAELAAFEKEIAAFESELQAYKGKGNPEVEELRWRAAIIRVYLQAYRHN
B3: D-domain SEQ ID NO: 116 (designed binder)
chain: B2 chain with E8D, A12V, A15W, T16F, E55A, W58A, I62Y, V65I, Y66W
B4: D-domain SEQ ID NO: 120 (designed binder)
chain: MGSWHEFYYRLEAIEQRLHALGGSEAELAAFEKEIAAFESELQAYKGKGNPEVETLRFDAALIRIYLQAYRHN
B5: D-domain SEQ ID NO: 113 (designed binder)
chain: MGSWNEFDNRLQAIWDRLHALGGSEAELAAFEKEIAAFESELQAYKGKGNPEVEELRFHAAMIRITLQAYRHN
B6: D-domain SEQ ID NO: 194 (designed binder)
chain: MGSWVEFWDRLGAIRERLQALGGSEAELAAFEKEIAAFESELQAYKGKGNPEVEELRASAAAIRIALQAYRHN
B7: D-domain SEQ ID NO: 207 (designed binder)
chain: MGSWVEFWNRLGAIYDRLEALGGSEAELAAFEKEIAAFESELQAYKGKGNPEVEKLRHTAAVIRLYLQAYRHN
B8: D-domain SEQ ID NO: 100 (designed binder)
chain: MGSWVEFYHRLEAIRYRLSALGGSEAELAAFEKEIAAFESELQAYKGKGNPEVEELRYVAAVIRYRLQAYRHN
B9: D-domain SEQ ID NO: 111 (designed binder)
chain: B5 chain with N5T, N9H, Q12G, D16E, H19V, M62I, T66F
B10: D-domain SEQ ID NO: 205 (designed binder)
chain: B7 chain with V5T, N9V, G12N, Y15R, K55D, V62I, L65N
B11: D-domain SEQ ID NO: 197 (designed binder)
chain: B6 chain with V5S, D9V, Q19D, E55K, A58Y, S59T, A62T, I65R, A66F
notes: also called bc40
B12: D-domain SEQ ID NO: 104 (designed binder)
chain: MGSWSEFSDRLHAISDRLQALGGSEAELAAFEKEIAAFESELQAYKGKGNPEVEELRIQAAIIRVWLQAYRHN
B13: D-domain SEQ ID NO: 206 (designed binder)
chain: B7 chain with N9H, K55E, H58R, V62L, L65Q, Y66T
B14: D-domain SEQ ID NO: 103 (designed binder)
chain: B12 chain with S5E, D9E, H12E, D16I, Q19R, I58V, Q59S
B15: D-domain SEQ ID NO: 193 (designed binder)
chain: B6 chain with Q19E, E55K, A58Y, S59V, A62V, I65H, A66R
B16: D-domain SEQ ID NO: 101 (designed binder)
chain: B8 chain with H9D, V59I
B17: D-domain SEQ ID NO: 202 (designed binder)
chain: MGSWSEFWDRLTAIRVRLDALGGSEAELAAFEKEIAAFESELQAYKGKGNPEVEKLRYTAAHIRKFLQAYRHN
B18: D-domain SEQ ID NO: 209 (designed binder)
chain: B5 chain with N5E, Q12E, W15F, H19E, F58E, H59F, M62T
B19: D-domain SEQ ID NO: 121 (designed binder)
chain: B4 chain with H5S, Y8E, Y9E, E12A, E15G, Q16S, H19F
B20: D-domain SEQ ID NO: 114 (designed binder)
chain: B2 chain with V5T, E8H, A12Q, A15W, T16F, W58F, V65L
B21: D-domain SEQ ID NO: 214 (designed binder)
chain: MGSWTEFWARLYAIEMRLFALGGSEAELAAFEKEIAAFESELQAYKGKGNPEVEHLRRVAALIREQLQAYRHN
B22: D-domain SEQ ID NO: 196 (designed binder)
chain: B17 chain with D9V, T12G, V16D, K55A, Y58V, H62Q, K65H, F66Y
B23: D-domain SEQ ID NO: 185 (designed binder)
chain: B6 chain with E55K, A58Y, S59T, I65H, A66Y
B24: D-domain SEQ ID NO: 204 (designed binder)
chain: B17 chain with S5F, T12A, V16D, D19E, K55D, T59V, H62K, K65V, F66R
B25: D-domain SEQ ID NO: 195 (designed binder)
chain: B17 chain with S5V, T12G, V16D, K55E, Y58N, H62Y, K65T
B26: D-domain SEQ ID NO: 208 (designed binder)
chain: B17 chain with D9E, T12E, R15Y, V16D, D19Y, K55E, Y58R, H62T, K65S
B27: D-domain SEQ ID NO: 99 (designed binder)
chain: B12 chain with S5T, S8R, H12G, S15Y, D16H, Q19D, I58Y, W66Y
B28: D-domain SEQ ID NO: 112 (designed binder)
chain: B5 chain with N5T, D8H, N9V, Q12S, H19V, M62I, T66V
B29: D-domain SEQ ID NO: 129 (designed binder)
chain: MGSWVEFGTRLSAIYNRLWALGGSEAELAAFEKEIAAFESELQAYKGKGNPEVEDLRFEAAIIRIMLQAYRHN
B30: D-domain SEQ ID NO: 139 (designed binder)
chain: B29 chain with V5S, G8S, N16V, D55Y, F58N, E59K, I62S, I65K, M66T
B31: D-domain SEQ ID NO: 130 (designed binder)
chain: B29 chain with G8T, T9H, S12D, N16I, D55E, F58H, I62V, I65E, M66E
B32: D-domain SEQ ID NO: 127 (designed binder)
chain: MGSWFEFQYRLEAIFYRLLALGGSEAELAAFEKEIAAFESELQAYKGKGKPEVEELRVRAALIRHLLQAYRHN
B33: D-domain SEQ ID NO: 124 (designed binder)
chain: MGSWNEFHHRLWAIFDRLGALGGSEAELAAFEKEIAAFESELQAYKGKGNPEVEVLRKMAAGIRGGLQAYRHN
B34: D-domain SEQ ID NO: 131 (designed binder)
chain: MGSWVEFHGRLAAIYVRLFALGGSEAELAAFEKEIAAFESELQAYKGKGNPEVESLRYHAAMIRRNLQAYRHN
B35: D-domain SEQ ID NO: 138 (designed binder)
chain: MGSWYEFHTRLIAIYVRLWALGGSEAELAAFEKEIAAFESELQAYKGKGNPEVEWLRGDAAKIRGYLQAYRHN
B36: D-domain SEQ ID NO: 125 (designed binder)
chain: MGSWYEFHYRLKAINDRLYALGGSEAELAAFEKEIAAFESELQAYKGKGNPEVEYLRYSAAMIRHKLQAYRHN
B37: D-domain SEQ ID NO: 126 (designed binder)
chain: B36 chain with Y5T, Y9Q, K12G, N15H, D16A, Y19G, Y58F, M62F, H65L
B38: D-domain SEQ ID NO: 122 (designed binder)
chain: MGSWLEFHYRLHAIQFRLYALGGSEAELAAFEKEIAAFESELQAYKGKGNPEVETLRHIAALIRNQLQAYRHN
B39: D-domain SEQ ID NO: 128 (designed binder)
chain: MGSWVEFHARLDAIYTRLGALGGSEAELAAFEKEIAAFESELQAYKGKGNPEVEYLRVLAAHIRISLQAYRHN
B40: D-domain SEQ ID NO: 115 (designed binder)
chain: B5 chain with D8S, N9G, Q12T, W15K, H19A, H59R, M62V, I65L, T66W
B41: D-domain SEQ ID NO: 132 (designed binder)
chain: MGSWVEFDRRLVAIYIRLWALGGSEAELAAFEKEIAAFESELQAYKGKGNPEVEALRDDAALIRLLLQAYRHN
B42: D-domain SEQ ID NO: 135 (designed binder)
chain: B41 chain with V5I, V12L, Y15H, I16V, A55V, D58A, L62K, L65M, L66E
B43: D-domain SEQ ID NO: 140 (designed binder)
chain: B41 chain with D8R, R9Y, V12G, I16H, A55V, D59R, L62T, L65R
B44: D-domain SEQ ID NO: 136 (designed binder)
chain: B41 chain with V5I, V12I, Y15W, A55S, D58S, L62D, L65Q, L66K
B45: D-domain SEQ ID NO: 134 (designed binder)
chain: B41 chain with V5L, V12T, I16L, D58E, L62M, L65D, L66M
B46: D-domain SEQ ID NO: 133 (designed binder)
chain: B41 chain with A55K, D58Y, L62T, L65E, L66T
B47: D-domain SEQ ID NO: 137 (designed binder)
chain: B41 chain with V12I, Y15W, I16V, A55F, D58S, L62M, L65E, L66H
B48: D-domain SEQ ID NO: 123 (designed binder)
chain: MGSWQEFYNRLEAIHMRLFALGGSEAELAAFEKEIAAFESELQAYKGKGNPEVEGLRSDAAPIRDVLQAYRHN
B49: D-domain SEQ ID NO: 117 (designed binder)
chain: MGSWSEFGQRLSAIWERLLALGGSEAELAAFEKEIAAFESELQAYKGKGNPEVEALRADAAFIRIWLQAYRHN
B50: D-domain SEQ ID NO: 119 (designed binder)
chain: B49 chain with S5Y, Q9D, L19A, A55Y, A58T, D59H, F62E, I65T, W66I

Numbering of substitutions follows the chain as printed.

For this test, the target named is T1, BCMA. Kind of test: ELISA, format not described. Also on record: unit not given here. For orientation: In an ELISA, binding on a coated surface is turned into a signal by an enzyme label.
Molecule B1 returned an ELISA_avg of 4.93. In the case of B2, the ELISA_avg was 16.3. In the case of B3, the ELISA_avg was 8.96. As for B4, the ELISA_avg is 3.73.

In turn, B5 yielded an ELISA_avg of 9.87.

In the case of B6, the ELISA_avg is 3.07. Under B7 stands 14.6; under B8, 7.8. Consider B9, for which the ELISA_avg stood at 9.54.

For B10, the ELISA_avg is 12.5. Regarding B11, the ELISA_avg came to 7.56. For the molecule B12, the ELISA_avg was 6.37. For B13, the ELISA_avg was 19.9. B14 came in with an ELISA_avg of 11.3.

Take B15: the ELISA_avg worked out at 4.18. On to B16, for which the ELISA_avg came out at 5.64.

B17 displayed an ELISA_avg of 16.1. The molecule B18 showed an ELISA_avg of 3.93. As to B19, the ELISA_avg was found to be 4.85. B20 came in with an ELISA_avg of 12.1.

As for B21, the ELISA_avg was 12.5. Molecule B22 registered an ELISA_avg of 23.5. As for B23, the ELISA_avg came out at 5.22. B24: the ELISA_avg was 12.8. In turn, B25 returned an ELISA_avg of 16.

Molecule B26 showed an ELISA_avg of 18.8. The molecule B27 had an ELISA_avg of 6.7. B28 showed an ELISA_avg of 23.6. Turning to B29, the ELISA_avg came out at 15.4.

B30 returned an ELISA_avg of 5.35.

Molecule B31 returned an ELISA_avg of 13.9. With B32 the figure was 17.3. Under B33 stands 3.88; under B34, 4. As for B35, the ELISA_avg was determined as 4.06. In the case of B36, the ELISA_avg was 6.04. In turn, B37 had an ELISA_avg of 8.87. The molecule B38 showed an ELISA_avg of 12.7. Molecule B39 came in with an ELISA_avg of 3.8.

Take B40: the ELISA_avg turned out to be 3.39. On to B41, for which the ELISA_avg stood at 8.93. Turning to B42, the ELISA_avg worked out at 13.7. Molecule B43 yielded an ELISA_avg of 10.8.

On to B44, for which the ELISA_avg is 9.45. As for B45, the ELISA_avg amounted to 9.82. B46 showed an ELISA_avg of 8. With B47, the ELISA_avg is 5.77.

With B48, the ELISA_avg turned out to be 6.47.

The molecule B49 came in with an ELISA_avg of 14. Turning to B50, the ELISA_avg is 8.89.

Source of the values: patent US20250026849A1 (ARCELLX, published 2025).
